# Source: patent US20250297004A1, “NECTIN-4 BINDING AGENTS” (INNATE PHARMA, priority 2022, published 2025)
# Positions count from the first letter of the chain named.
# T1: human Nectin-4 expressed on cells (human, UniProt Q96NY8 32-510)
# T1 sequence: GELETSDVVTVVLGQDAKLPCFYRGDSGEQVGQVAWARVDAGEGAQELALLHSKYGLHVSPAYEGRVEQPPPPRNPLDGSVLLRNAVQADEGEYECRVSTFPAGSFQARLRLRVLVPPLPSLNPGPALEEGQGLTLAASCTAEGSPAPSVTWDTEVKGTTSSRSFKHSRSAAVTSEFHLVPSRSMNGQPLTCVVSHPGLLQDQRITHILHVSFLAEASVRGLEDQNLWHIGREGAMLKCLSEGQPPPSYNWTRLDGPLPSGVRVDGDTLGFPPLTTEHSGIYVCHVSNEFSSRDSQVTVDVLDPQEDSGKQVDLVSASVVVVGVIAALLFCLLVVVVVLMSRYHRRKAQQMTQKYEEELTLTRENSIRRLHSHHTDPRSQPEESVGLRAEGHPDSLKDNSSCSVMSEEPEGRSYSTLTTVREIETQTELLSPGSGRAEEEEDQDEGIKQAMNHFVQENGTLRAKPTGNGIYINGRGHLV
# T2: human Nectin-4 (Homo sapiens, UniProt Q96NY8)
# T2 sequence (Q96NY8 32-510): T1 sequence
# B1: H4L2 (antibody, human IgG1, V domains shown)
# VH: QVQLVQSGAEVKKPGASVKVSCKASGYIFTSYWMHWVKQAPGQGLEWMGEIDPSDSYTNYNQKFKGRVTMTLDKSTSTTYMELSSLRSEDTAVYYCARGYGNYGDYWGQGTLVTVSS
# VL: DVVMTQSPLSNPVTPGEPASISCRSSKSLLHSNGITYLYWYLQKPGQSPQLLIYQMSNLASGVPDRFSSSGSGTDFTLKISRVEAEDVGVYYCAQNLELPWTFGGGTKVEIK
# notes: human IgG1 isotype
# B2: H7L3 (antibody, human IgG1, V domains shown)
# VH: B1 VH with A40R, M48I, M70L
# VL: B1 VL with P8A
# notes: human IgG1 isotype
# B3: H6L2 (antibody, human IgG1, V domains shown)
# VH: B1 VH with A40R, M48I
# VL: B1 VL
# notes: human IgG1 isotype
# B4: H5L1 (antibody, human IgG1, V domains shown)
# VH: B1 VH with A40R
# VL: B1 VL with N11L
# notes: human IgG1 isotype
# B5: H6L1 (antibody, human IgG1, V domains shown)
# VH: B1 VH with A40R, M48I
# VL: B1 VL with N11L
# notes: human IgG1 isotype
# B6: H4L3 (antibody, human IgG1, V domains shown)
# VH: B1 VH
# VL: B1 VL with P8A
# notes: human IgG1 isotype
# B7: H7L1 (antibody, human IgG1, V domains shown)
# VH: B1 VH with A40R, M48I, M70L
# VL: B1 VL with N11L
# notes: human IgG1 isotype
# B8: H6L3 (antibody, human IgG1, V domains shown)
# VH: B1 VH with A40R, M48I
# VL: B1 VL with P8A
# notes: human IgG1 isotype
# B9: H8L1 (antibody, human IgG1, V domains shown)
# VH: B1 VH with M48I
# VL: B1 VL with N11L
# notes: human IgG1 isotype
# B10: H5L2 (antibody, human IgG1, V domains shown)
# VH: B1 VH with A40R
# VL: B1 VL
# notes: human IgG1 isotype
# B11: H7L2 (antibody, human IgG1, V domains shown)
# VH: B1 VH with A40R, M48I, M70L
# VL: B1 VL
# notes: human IgG1 isotype
# Biological target: human Nectin-4 (protein used in the SPR affinity measurements) (human) (UniProt Q96NY8)
# Experiment: SPR, human IgG1
# Conditions: not given
Molecule,Kd [nM],koff [s⁻¹],kon [M⁻¹ s⁻¹]
B1,26.8,0.0054,200000
B2,49,0.0055,110000
B3,41.3,0.0058,140000
B4,24.5,0.0056,230000
B5,32.1,0.0062,190000
B6,21.6,0.0052,250000
B7,29.7,0.006,200000
B8,38.6,0.0051,130000
B9,19.2,0.0048,250000
B10,23.8,0.0053,220000
B11,39.5,0.0063,160000

# Biological target: T1, human Nectin-4 expressed on cells
# Experiment: cell-based or functional assay
# Conditions: not given
Molecule,"internalization efficiency on SUM190, normalized to chimeric parental antibody (Fab-ZAP, CTG), experiment 1","internalization efficiency on SUM190, normalized to chimeric parental antibody (Fab-ZAP, CTG), experiment 2"
B1,83.6 % of chimeric parental,67.6 % of chimeric parental
B2,88.5 % of chimeric parental,61.3 % of chimeric parental
B3,69.7 % of chimeric parental,63.5 % of chimeric parental
B4,71.5 % of chimeric parental,52.4 % of chimeric parental
B5,71.3 % of chimeric parental,54.5 % of chimeric parental
B6,81.9 % of chimeric parental,61 % of chimeric parental
B7,129 % of chimeric parental,73.1 % of chimeric parental
B8,78.7 % of chimeric parental,92.8 % of chimeric parental
B9,132 % of chimeric parental,65.2 % of chimeric parental
B10,81.3 % of chimeric parental,86 % of chimeric parental
B11,89.6 % of chimeric parental,74.8 % of chimeric parental

# Biological target: T1, human Nectin-4 expressed on cells
# Experiment: cell-based or functional assay
# Conditions: not given
# Remark: another data set of the same source
Molecule,"internalization efficiency on MDA-MB-468, normalized to chimeric parental antibody (Fab-ZAP, CTG), first column","internalization efficiency on MDA-MB-468, normalized to chimeric parental antibody (Fab-ZAP, CTG), second column"
B1,64.2 % of chimeric parental,64.2 % of chimeric parental
B2,51.8 % of chimeric parental,51.8 % of chimeric parental
B3,58.5 % of chimeric parental,58.5 % of chimeric parental
B4,33.4 % of chimeric parental,33.4 % of chimeric parental
B5,61.6 % of chimeric parental,61.6 % of chimeric parental
B6,43.8 % of chimeric parental,43.8 % of chimeric parental
B7,79 % of chimeric parental,79 % of chimeric parental
B8,66.3 % of chimeric parental,66.3 % of chimeric parental
B9,71.2 % of chimeric parental,71.2 % of chimeric parental
B10,39.4 % of chimeric parental,39.4 % of chimeric parental
B11,58.7 % of chimeric parental,58.7 % of chimeric parental

# Biological target: T2, human Nectin-4
# Experiment: Binding to human Nectin-4 by SPR
# Conditions: SPR association constant; second set (Table 7)
# Experimental: (§1) The antibodies in Table 3 of Example 3 were cloned as human IgG1 isotype antibodies, produced and purified, then tested for binding to human Nectin-4. Affinity of the 16 humanized variants, as well as their association and dissociation constants were assessed by SPR analysis. Table 4 summarizes all the calculated constants (Affinity constant KD (nM), association constant ka (1/Ms) and dissociation constant kd (1/s)).
# as §1, with “Table 6” for “Table 3”, “Example 5” for “Example 3”, “Table 7” for “Table 4”
row,Molecule,ka [M⁻¹ s⁻¹]
1,B1,200000
2,B2,110000
3,B3,140000
4,B4,230000
5,B5,190000
6,B6,250000 ± 30000
7,B7,200000
8,B8,130000
9,B9,250000
10,B10,220000
11,B11,160000

# Same assay, conditions: SPR dissociation constant; second set (Table 7)
row,Molecule,kd [s⁻¹]
1,B1,0.0054
2,B2,0.0055
3,B3,0.0058
4,B4,0.0056
5,B5,0.0062
6,B6,0.0052 ± 0.0002
7,B7,0.006
8,B8,0.0051
9,B9,0.0048
10,B10,0.0053
11,B11,0.0063

# Same assay, conditions: SPR; human IgG1 isotype antibodies; second set (Table 7)
row,Molecule,Kd [nM]
1,B1,26.8
2,B2,49
3,B3,41.3
4,B4,24.5
5,B5,32.1
6,B6,21.6 ± 1.1
7,B7,29.7
8,B8,38.6
9,B9,19.2
10,B10,23.8
11,B11,39.5

# Test system: SUM190 cells subcutaneously engrafted in CB17-SCID mice
# Experiment: In vivo efficacy of ggfg-Dxd ADCs, Nectin-4 low/SUM190 mouse model of human breast cancer
# Conditions: single i.v. injection 3 mg/kg; each antibody conjugated to ggfg-Dxd, DAR=8; FIG. 4
# Experimental: SUM190 cells were subcutaneously engrafted in CB17-SCID immunodeficient mice at a dose of 0.5 million cells in 100 μl of Matrigel with growth factor diluted at ½ in PBS. When tumors reached a volume between 195 and 250 mm3, mice were randomized into groups of 9 mice for intravenous treatment with a single injection of 3 mg/kg of camptothecin ADCs. Tumor growths were followed twice a week. Kaplan Meier survival curves were established by using GraphPad Prism V7 software according to the following criteria: When the tumor volume reached 1500 mm3, mice were euthanized and considered dead on the day of sacrifice (D).
row,Molecule,control of tumor growth
1,enfortumab [reference compound],no longer showed the ability to control tumor growth

# Biological target: T1, human Nectin-4 expressed on cells
# Experiment: flow cytometry on SUM190 cells, MedFI at saturation
# Conditions: not given
# Experimental: The humanized antibodies in Table 3 of Example 3 and in Table 6 of Example 5 were cloned, produced and purified, then tested for binding to Nectin-4 expressing cells by flow cytometry. Binding of humanized variants in human IgG1 format was determined on the SUM190 cell line expressing high levels of Nectin-4.
row,Molecule,Max MedFi [MedFI]
1,B1,24400
2,B2,25000
3,B3,24800
4,B4,18300
5,B5,18300
6,B6,24800
7,B7,17800
8,B8,24800
9,B9,17300
10,B10,25300
11,B11,23400
